Results on seven molecules are retold here after patent US20140348844A1 (UCB, published 2014).

For one test, the target named is TcdA ribotype 078 (Clostridium difficile ribotype 078). The experiment in a line: cell-based or functional assay.
The target of test [1] is T1, toxin B (VPI 10463) (Clostridium difficile strain VPI 10463, UniProt P18177 2-2366). Kind of test: cell-based or functional assay.
Test [2] deals with T2, TcdB binding (TcdB1234) (Clostridium difficile ribotype 027, UniProt P18177 1833-2366).
T2 construct: also called CROPs1,2,3,4 of Toxin B
The experiment in a line: SPR BIAcore 3000, Mab captured on anti-human Fc, TcdB1234 in solution, purified Mab 3 point titration. For orientation: SPR reads the build-up and loss of mass on a sensor chip optically.

Test [3] addresses T1, toxin B (VPI 10463). The experiment in a line: cell-based or functional assay. The source holds these as a separate data set.
Test [4] concerns the target T1, toxin B (VPI 10463). Kind of test: cell-based or functional assay. This is another data set of the same source.
The target of a further test is T3, TcdA from ribotype 027 (Clostridium difficile ribotype 027, UniProt P16154 1-2710).
T3 construct: also called TcdA ribotype 027; TcdA whole toxin
Kind of test: estimated from SPR on TcdA sub-domains.

Test [5] concerns the target TcdA purified from strain VPI10463 (Clostridium difficile strain VPI10463, UniProt P16154 1-2710). Kind of test: cell-based or functional assay.
The target in another test is TcdA CROPS456 (TcdA456) (Clostridium difficile ribotype 027, UniProt P16154 2205-2608).
Test [6] deals with T2, TcdB binding (TcdB1234). The experiment in a line: SPR Biacore 3000, biotinylated TcdB1234 on streptavidin chip, antibody at 500 nM, saturating response.

Where a chain is given by its changes, count along the chain named. Values joined by “and” are separate entries in the source; they are usually repeats but may differ in a detail not shown here. Equal entries are not always repeated.

One may read the Kd as the equilibrium constant for the complex coming apart. Low readings indicate tighter binding, high ones weaker binding. By koff is commonly meant the first-order rate constant of dissociation. A high value points to a short-lived complex. As a reminder, the kon is the rate constant with which the complex forms. A low value points to slower complex formation.

B1: CA164_00922.g1 (antibody, V domains shown)
VH: EVQLVESGGGLVQPGGSLRLSCAASGFTISSYYMSWVRQAPGKGLEWIGIISSGGHFTWYANWAKGRFTISSDSTTVYLQMNSLRDEDTATYFCARAYVSGSSFNGYALWGQGTLVTVS
VL: DPVMTQSPSTLSASVGDRVTITCQASQSISNALAWYQQKPGKAPKLLIYSASSLASGVPSRFKGSGSGTEFTLTISSLQPDDFATYYCQYTHYSHTSKNPFGGGTKVEIK
Take B1: in the test with TcdA ribotype 078, the “EC50 values (ng/ml) - TcdA ribotype 078, LD80” value (from here on “EC50 values (ng/ml) … LD80”) came to 0.11 ng/mL and the “EC50 values (ng/ml) - TcdA ribotype 078, LDmax” value (“EC50 values (ng/ml) … LDmax” for short) is 0.68 ng/mL.

B2: CA164_1134.g5 (antibody, V domains shown)
VH: EVQLQESGPGLVKPSETLSLTCTVSGFSLNSYTITWVRQPPGKGLEWIAAISGGGSTYFNSALKSRVTISRDTSKSQVSLKLSSVTAADTAVYYCTRPRWYPRSYFDYWGRGTLVTVS
VL: DVQLTQSPSFLSASVGDRVTITCKASKSISNHLAWYQEKPGKANKLLIHSGSTLQPGTPSRFSGSGSGTEFTLTISSLQPEDFATYYCQQYDEYPYTFGQGTRLEIK
notes: also called CA1134; CA164_01134.g5
B2: in the test with toxin B (VPI 10463) [1], the “Maximum neutralisation, TcdB LD75” value was found to be 45%; the “Maximum neutralisation, TcdB LD86” value was found to be 25%; the “Maximum neutralisation, TcdB LD90” value was determined as 15%. In addition, in the test with TcdB binding (TcdB1234) [2], the Kd is 0.0481 nM and 0.048 nM; the koff was determined as 2.45e-05 s⁻¹; the kon stood at 509000 M⁻¹ s⁻¹. For the same molecule, in the test with toxin B (VPI 10463) [3], the “EC50(ng/ml), TcdB neutralisation on Caco-2 cells, constant toxin concentration” value is over 1000 ng/mL. In the test with toxin B (VPI 10463) [4], the “IC50 (ng/ml), TcdB neutralisation on Caco-2 cells, toxin at LD80” value (from here on “IC50 (ng/ml), TcdB neutralisation”) was 8 ng/mL.

B3: CA164_1099.g2 (antibody, V domains shown)
VH: B2 VH with N30Q, T35S, F59Y, S61L, A62P
VL: DVQLTQSPSFLSASVGDRVTITCKASKSISNHLAWYQEKPGKANKLLIHSGSTLQSGTPSRFSGSGSGTEFTLTISSLQPEDFATYYCQQYDEYPYTFGQGTRLEIKR
Turning to B3, the “IC50 (ng/ml), TcdB neutralisation” value in the test with toxin B (VPI 10463) [4] is 2 ng/mL.

B4: CA164_01000.g1 (antibody, V domains shown)
VH: EVQLVESGGGLIQPGGSLRLSCTVSGIDLSSDAVGWVRQAPGKGLEYIGIIATFDSTYYASWAKGRFTISKASSTTVYLQMNSLRAEDTATYFCARTGSWYYISGWGSYYYGMDLWGQGTLVTVS
VL: EIVMTQSPSTLSASVGDRVTITCQASQSIYSYLAWYQQKPGKAPKLLIYDASTLASGVPSRFKGSGSGTEFTLTISSLQPDDFATYYCQGNAYTSNSHDNAFGGGTKVEIK
For the molecule B4, in the test with TcdA ribotype 078, the “EC50 values (ng/ml) … LD80” value is 2.04 ng/mL; the “EC50 values (ng/ml) - TcdA ribotype 078, LD90” value worked out at 2.41 ng/mL; the “EC50 values (ng/ml) - TcdA ribotype 078, LD95” value came to 5.03 ng/mL; the “EC50 values (ng/ml) … LDmax” value stood at 14.2 ng/mL.

B5: CA164_00995.g1 (antibody, V domains shown)
VH: EVQLVESGGGLVQPGGSLRLSCTASGFSLSNYDMIWVRQAPGKGLEYIGFINTGGITYYASWAKGRFTISRDSSTVYLQMNSLRAEDTATYFCARVDDYIGAWGAGLWGQGTLVTVS
VL: DVVMTQSPSTLSASVGDRVTITCQASQSINNYFSWYQQKPGKAPKLLIYGAANLASGVPSRFKGSGSGTEYTLTISSLQPDDFATYSCQNNYGVHIYGAAFGGGTKVEIK
notes: also called CA995; CA164_0995.g1
As to B5, in the test with TcdA from ribotype 027, the “Valency of binding, TcdA, est.” value is 1. Besides, the “EC50 (ng/ml), TcdA neutralisation on Caco-2 cells, TcdA at LD80” value in [5] is 37.6 ng/mL. In addition, in the test with TcdA CROPS456 (TcdA456), the Kd is 0.119 nM, the koff turned out to be 3.42e-05 s⁻¹ and the association rate constant (kon) was 287000 M⁻¹ s⁻¹.

B6: CA164_00997.g1 (antibody, V domains shown)
VH: EVQLVESGGGLVQPGGSLRLSCTVSGIDLSSHHMCWVRQAPGKGLEYIGVIYHFGSTYYANWATGRFTISKDSTTVYLQMNSLRAEDTATYFCARASIAGYSAFDPWGQGTLVTVS
VL: ALVMTQSPSSFSASTGDRVTITCQASQSISSYLSWYQQKPGKAPKLLIYRASTLASGVPSRFSGSGSGTEYTLTISCLQSEDFATYYCLGVYGYSNDDGIAFGGGTKVEIK
Regarding B6, in the test with TcdA ribotype 078, the “EC50 values (ng/ml) … LD80” value was 0.33 ng/mL; the “EC50 values (ng/ml) - TcdA ribotype 078, LD90” value worked out at 0.64 ng/mL; the “EC50 values (ng/ml) - TcdA ribotype 078, LD95” value is 1.11 ng/mL; the “EC50 values (ng/ml) … LDmax” value stood at 2.57 ng/mL.

B7: CA164_1151.g4 (antibody, V domains shown)
VH: EVQLQESGPGLVKPSETLSLTCTVSGFSLTSYYVHWVRQPPGKGLEWMGCIRTGGNTEYQSEFKSRVTISRDTSKNQVSLKLSSVTAADTAVYYCARGNYGFAYWGQGTLVTVS
VL: AIQMTQSPSSLSASVGDRVTITCKASQNVGNNVAWYQHKPGKAPKLLIYYASNRFTGVPSRFTGGGYGTDFTLTISSLQPEDFATYYCQRVYQSTWTFGQGTKVEIK
notes: also called CA1151; CA1151.g4
On to B7, for which the “Binding Response (RU)” value in the test with TcdB binding (TcdB1234) [6] stood at 1230 RU. Besides, in the test with toxin B (VPI 10463) [1], the “Maximum neutralisation, TcdB LD75” value came to 45%; the “Maximum neutralisation, TcdB LD86” value came out at 25%; the “Maximum neutralisation, TcdB LD90” value turned out to be 20%. Also, the “IC50 (ng/ml), TcdB neutralisation” value with toxin B (VPI 10463) [4] was 182 ng/mL.
